Results from patent CN118388640A (CHENZHOU NO 1 PEOPLES HOSPITAL, dated 2024).

Molecular target: T1, SARS-CoV-2 Wuhan-Hu-1 S蛋白 (Sino Biological，货号:40589-V08B1) (SARS-CoV-2 Wuhan-Hu-1, UniProt P0DTC2 14-1213)
T1 construct: extracellular domain
Assay: ELISA, S protein coated at 2 μg/mL, antibody at 1 μg/mL

B1: 抗新型冠状病毒SARS-CoV-2的广谱抗体(VSM12-37) (antibody, V domains shown)
VH: EVQLVESGGGLVQPGGSLRLSCAVSGFTVSSNYMSWVRQAPGKGLEWVSLIYSGGSTYYADSVKGRFTVSRDRSKNTLYLQMNSLRAEDTALYYCARDNPRVGSNYWGQGTLVTVSS
VL: DIQMTQSPSSLSASVGDRVTITCQASQDINNYLNWYQQKPGKAPKLLIYDASNLEAGVPSRFSGSGSGTDFTFTISSLQPEDIATYYCQQCDNVPLTFGGGTKVEIKR
notes: also called VSM12-37抗体
B1: binds.
